Test [1] concerns the target biotinylated IgG. The experiment in a line: BIAcore; half-life calculated as 0.693/koff/60.
Test [2] addresses biotinylated IgG. The experiment in a line: BIAcore, biotinylated IgG immobilised, mutein injected. In general terms: In SPR one partner is held on a chip, and binding of the other changes the refractive index at the surface.

Sequence of 2-aa-loop mutein (streptavidin, loop7-8 replaced by N G) (P22629 other isoform, or with tags, fused parts or gaps mutant): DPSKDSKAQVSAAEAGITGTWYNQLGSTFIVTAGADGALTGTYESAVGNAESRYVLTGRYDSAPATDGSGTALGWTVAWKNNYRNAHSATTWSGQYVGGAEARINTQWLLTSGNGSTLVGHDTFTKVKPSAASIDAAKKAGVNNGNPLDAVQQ
Sequence of 6-aa-loop mutein (streptavidin, loop7-8 replaced by D S N G S G) (P22629 other isoform, or with tags, fused parts or gaps mutant): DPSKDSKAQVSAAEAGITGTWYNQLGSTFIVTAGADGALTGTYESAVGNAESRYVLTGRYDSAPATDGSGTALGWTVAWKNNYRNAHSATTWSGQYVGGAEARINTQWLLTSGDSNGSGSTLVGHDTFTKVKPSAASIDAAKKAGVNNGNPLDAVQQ

For orientation: Kd means the free concentration of one partner at which half of the binding sites on the other are occupied at equilibrium, for simple one-to-one binding. A lower Kd goes with tighter binding. As usually defined, the koff is a measure of how fast the partners let go of each other. A lower koff goes with slow dissociation. As usually defined, the kon is the second-order rate constant of association. Read a high kon as faster complex formation. Regarding “2-aa-loop mutein (streptavidin, loop7-8 replaced by N G) (from UniProt P22629 25-183)”, in the test with biotinylated IgG [1], the t1/2 was 2.75 h. Moreover, in the test with biotinylated IgG [2], the dissociation constant (Kd) amounted to 1.12 nM, the koff amounted to 7.02e-05 s⁻¹ and the kon was determined as 63000 M⁻¹ s⁻¹.

“6-aa-loop mutein (streptavidin, loop7-8 replaced by D S N G S G) (from UniProt P22629 25-183)”: the t1/2 in the test with biotinylated IgG [1] was 2.53 h. In the test with biotinylated IgG [2], this substance registered a Kd of 3.13 nM, a koff of 7.59e-05 s⁻¹ and an on-rate constant (kon) of 24300 M⁻¹ s⁻¹.

On to “8-aa-loop-H127C mutein (streptavidin, loop7-8 replaced by D S S N G S D G, with H127C) (from UniProt P22629 25-183)”, for which the t1/2 in the test with biotinylated IgG [1] is 0.45 h. In the test with biotinylated IgG [2], this substance had a Kd of 19 nM, a koff of 0.000428 s⁻¹ and a kon of 22100 M⁻¹ s⁻¹.

Take “ΔW-HC mutein (streptavidin with Trp-120 deleted and H127C) (from UniProt P22629 25-183)”: the t1/2 with biotinylated IgG [1] is 0.482 h. In the test with biotinylated IgG [2], this substance returned a Kd of 8.1 nM, a koff of 0.0004 s⁻¹ and a kon of 49600 M⁻¹ s⁻¹.

The record behind these values is patent US20130035471A1.
